Data taken from IntAct's records for PubMed 15009215.

B1: Emerin (Homo sapiens), P50402 (parent)
chain: MDNYADLSDTELTTLLRRYNIPHGPVVGSTRRLYEKKIFEYETQRRRLSPPSSSAASSYSFSDLNSTRGDADMYDLPKKEDALLYQSKGYNDDYYEESYFTTRTYGEPESAGPSRAVRQSVTSFPDADAFHHQVHDDDLLSSSEEECKDRERPMYGRDSAYQSITHYRPVSASRSSLDLSYYPTSSSTSFMSSSSSSSSWLTRRAIRPENRAPGAGLGQDRQVPLWGQLLLFLVFVIVLFFIYHFMQAEEGNPF

Variants of: B1
Conditions: with bclf1_human BCLAF1, Q9NYF8
bclf1_human BCLAF1, Q9NYF8, sequence (Q9NYF8 whole entry): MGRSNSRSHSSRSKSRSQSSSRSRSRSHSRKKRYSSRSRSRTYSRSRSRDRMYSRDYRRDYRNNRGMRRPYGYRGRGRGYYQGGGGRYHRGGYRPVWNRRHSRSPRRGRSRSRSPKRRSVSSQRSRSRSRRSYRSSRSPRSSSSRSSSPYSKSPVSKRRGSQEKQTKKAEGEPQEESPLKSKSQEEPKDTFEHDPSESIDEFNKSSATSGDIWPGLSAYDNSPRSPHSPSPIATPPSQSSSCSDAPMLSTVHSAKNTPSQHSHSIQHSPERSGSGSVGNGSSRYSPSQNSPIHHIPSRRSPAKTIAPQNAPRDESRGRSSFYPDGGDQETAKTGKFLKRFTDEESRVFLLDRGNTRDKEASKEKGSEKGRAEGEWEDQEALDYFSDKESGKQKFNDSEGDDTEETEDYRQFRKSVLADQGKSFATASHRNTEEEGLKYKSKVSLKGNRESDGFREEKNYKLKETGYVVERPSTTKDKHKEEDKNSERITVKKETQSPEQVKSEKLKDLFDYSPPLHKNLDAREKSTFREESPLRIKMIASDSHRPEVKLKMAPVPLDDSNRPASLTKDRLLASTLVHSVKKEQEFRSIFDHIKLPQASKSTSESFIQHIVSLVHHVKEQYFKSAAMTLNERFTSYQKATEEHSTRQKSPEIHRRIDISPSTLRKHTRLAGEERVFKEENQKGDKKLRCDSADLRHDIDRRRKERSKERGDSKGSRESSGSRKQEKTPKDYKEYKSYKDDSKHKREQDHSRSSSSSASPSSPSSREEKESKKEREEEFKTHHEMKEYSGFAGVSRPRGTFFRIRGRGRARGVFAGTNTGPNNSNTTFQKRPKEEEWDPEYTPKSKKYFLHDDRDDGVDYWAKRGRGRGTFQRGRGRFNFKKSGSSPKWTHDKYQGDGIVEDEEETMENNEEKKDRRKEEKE

Effect of a mutation on the interaction, decreasing interaction:
D70A;D72A;Y74A
R207A;P208A
S175A;S176A
S54F
L76A;K78A;E80A;L83A
G214A;L217A
R45A;R46A;R47A
I206A;R207A;E209A
S192A;S194A;S195A;S196A
S197A;S198A
